Article PMC6614801, “Structural basis for the function of SuhB as a transcription factor in ribosomal RNA synthesis” (Nucleic Acids Research, 2019)

T1: SuhB^K108A (E. coli, UniProt P0ADG4 1-267, K108A)
T1 sequence (looked up): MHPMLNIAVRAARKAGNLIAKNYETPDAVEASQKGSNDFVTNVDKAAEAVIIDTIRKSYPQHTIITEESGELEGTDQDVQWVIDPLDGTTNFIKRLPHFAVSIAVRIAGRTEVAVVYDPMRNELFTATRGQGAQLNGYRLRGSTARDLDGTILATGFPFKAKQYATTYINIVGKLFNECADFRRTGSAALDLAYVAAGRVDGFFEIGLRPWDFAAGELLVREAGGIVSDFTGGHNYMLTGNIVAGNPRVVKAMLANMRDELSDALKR

B1: SuhB (inositol mono-phosphatase SuhB), wild type (natural protein, E. coli, UniProt P0ADG4 1-267, looked up)
chain: MHPMLNIAVRAARKAGNLIAKNYETPDAVEASQKGSNDFVTNVDKAAEAVIIDTIRKSYPQHTIITEESGELEGTDQDVQWVIDPLDGTTNFIKRLPHFAVSIAVRIKGRTEVAVVYDPMRNELFTATRGQGAQLNGYRLRGSTARDLDGTILATGFPFKAKQYATTYINIVGKLFNECADFRRTGSAALDLAYVAAGRVDGFFEIGLRPWDFAAGELLVREAGGIVSDFTGGHNYMLTGNIVAGNPRVVKAMLANMRDELSDALKR
notes: Inositol mono-phosphatase SuhB of E. coli, PCR-amplified from E. coli (DH5α) genomic DNA, full length; Dimer by SEC-MALS and in both crystal structures; also called wt SuhB; SuhB^II; source: E. coli BL21(DE3)pLysS, purified (Ni-NTA, TEV digestion, SEC)
B2: N-terminally His6-tagged NusA^AR2 (domain or fragment, E. coli, UniProt P0AFF6 427-495, looked up)
chain: DNKPADDLLNLEGVDRDLAFKLAARGVCTLEDLAEQGIDDLADIEGLTDEKAGALIMAARNICWFGDEA
notes: C-terminal acidic repeat 2 (AR2) domain of E. coli NusA, residues 427–495; Same construct as m3, with the His6 tag kept for capture on the NTA chip in SPR; also called wt AR2; source: recombinant (pETM-11), purified via the same protocol as full-length NusA (19); not shown: His6, N-terminal, kept
B3: SuhB^KL251/254AA (natural protein, E. coli, UniProt P0ADG4 1-267, looked up)
chain: MHPMLNIAVRAARKAGNLIAKNYETPDAVEASQKGSNDFVTNVDKAAEAVIIDTIRKSYPQHTIITEESGELEGTDQDVQWVIDPLDGTTNFIKRLPHFAVSIAVRIKGRTEVAVVYDPMRNELFTATRGQGAQLNGYRLRGSTARDLDGTILATGFPFKAKQYATTYINIVGKLFNECADFRRTGSAALDLAYVAAGRVDGFFEIGLRPWDFAAGELLVREAGGIVSDFTGGHNYMLTGNIVAGNPRVVAAMAANMRDELSDALKR
notes: also called KL/AA

Assays:
Conditions in all cases: both partners purified
NusA, full length = target: T2, NusA, full length (E. coli, UniProt P0AFF6 1-495); experiment: SEC; analytical SEC of mixtures of proteins only; Superdex 200 Increase 3.2/300; 20 μM largest component, 25 μM all smaller components; 20 mM HEPES–NaOH pH 7.5, 50 mM NaCl, 1 mM DTT; incubated at room temperature for 15 min; fractions on SDS-PAGE
T2 construct: Transcription factor NusA of E. coli, full length; also called NusA^FL; N-utilization substance A; source: recombinant, produced and purified as described previously (18,19)

SuhB^K108A = target: T1, SuhB^K108A; experiment: SPR; Biacore, Sensor Chip NTA, 20°C; N-terminally His6-tagged NusA^AR2 immobilised; single cycle kinetics with SuhB variants at 25, 50, 100, 150 and 200 nM; 20 mM HEPES–NaOH pH 7.5, 50 mM NaCl, 1 mM DTT
[1] = target: B1; experiment: as above

Row | Binder | binding result (NusA, full length) | Kd (SuhB^K108A) [nM] | Kd [1] [nM]
1 | B1 | binds |  | 
2 | B2 |  | 435 | 94
3 | B3 | binds |  | 
